Consider 40 sequences from the nanobody polyreactivity screen of Harvey et al. (2022).

The nature of this series: yeast display, Sf9 membrane polyspecificity reagent, FACS + sequencing; frameworks hold sequencing errors. The essentials: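 Galactose-induced (36–48 hours) yeast carrying a synthetic nanobody display library were exposed to 10% biotinylated, detergent-solubilized Sf9 membrane reagent at 4 °C for 1 hour. FACS followed streptavidin microbead enrichment, using low and high (top ~1%) gates for expression (anti-HA) and reagent binding (streptavidin). Colony PCR, MiSeq 2 × 250 sequencing and CDR-length filtering followed. Labels for polyreactivity reflect the gate of origin.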
Consider “QVQLVESGGGLVQAGGSLRLSCAASGSTFSSLIMGWYRQAPGKERELVAAISRSGGRTYYADSVKGRFTISRDNAKNTVYLQMNSLKPEDTAVYYCAAPWFRDTRGYSLYDYWGQGTQVTVSS”, for which the “polyreactivity (PSR sort gate)” value is recorded as “high polyreactivity”.

Take “QVQLVESGGGLVQAGGSLRLSCAASGSTFSSNAMGWYRQAPGKERELVAAINRRGGTYYADSVKGRFTISRDNAKNTVYLQMNSLKPEDTAVYYCAAASPYHEYDYCGQGTQVTVSS”: the “polyreactivity (PSR sort gate)” value is on record as “low polyreactivity”.

Take “QVQLVESGGGLVQAGGSLRLSCAASGSTFSSYAMGWYRPAPGKERELVARISSSGGRTSYADSVKGRFTISRDHAKNTVYLQMNSLKAEDTAVSYCAAEDQYYRYFFSYEYWGQGTQVTVSS”: the “polyreactivity (PSR sort gate)” value was “high polyreactivity”.

Regarding “QVQLVESGGGLVQAGGSLRLSCAASGSTFSSYAMGWYRQAPGKEREFDAAINTDGGSTYYADSVKGRFTISRDNAKNTVYLQMNSLKPEDTAVYYCAARYYWPWYSSYDYWGQGTQVTVSS”, the “polyreactivity (PSR sort gate)” value is “low polyreactivity”.

For “QVQLVESGGGLVQAGGSLRLSCAASGSTFSSYAMGWYRQAPGKERELVAAINWSGTRTYYADSVKGRFTISRDNAKNTVYLQMNSLKPEDTAVYYCAAPGFGETADYDDWGQGTQVTVSS”, the “polyreactivity (PSR sort gate)” value was “low polyreactivity”.

As to “QVQLVESGGGLVQAGGSLRLSCAASGSTFSSYVMGWYRQAPGKERELVAAISSIGGSTYYADSVKGRFTISRDNAKNTVYLQMNSLKPEDTAVYYCAAEPPGSTYEGGYWGQGTQVTVSS”, the “polyreactivity (PSR sort gate)” value is “low polyreactivity”.

In the case of “QVQLVESGGGLVQAGGSLRLSCAASGSTFSTNAMGWYRQAPGKERELVASITRSGGSTYYADSVKGRFTISRDNAKNTVYLQMNSLKPEDTAVYYCNADGYYDYDYGYWGQGTQVTVSS”, the “polyreactivity (PSR sort gate)” value was “low polyreactivity”.

With “QVQLVESGGGLVQAGGSLRLSCAASGSTFSTYAMGWDRQAPGKERELVAAIRWSGGSTYYADSVKGRFTISRDNAKNTVYLQMNSLKPEDTAVYNCNAGASYFLVISQSRRDYWGQGTEVTVSS”, the “polyreactivity (PSR sort gate)” value is “low polyreactivity”.

As to “QVQLVESGGGLVQAGGSLRLSCAASGSTFSTYAMGWYRPAPGKERELVAAISRRGTNTYYADSVKGRFTISRDNAKNTVYLQMNSLKPEDTAVYYCAARSRSLRVYNRVYEVNEMDYWGQGTQVTVSS”, the “polyreactivity (PSR sort gate)” value is “low polyreactivity”.

As for “QVQLVESGGGLVQAGGSLRLSCAASGSTFSTYAMGWYRQAPGKERELVARITRGGSTNYADSVKGRFTISRDNAKNTVYLQMNSLKPEDTAVYYCAAGIRSGRKYDYWGQGTQVTVSS”, the “polyreactivity (PSR sort gate)” value is listed as “low polyreactivity”.

“QVQLVESGGGLVQAGGSLRLSCAASGSTFSTYAMGWYRQAPGKERELVASISGRGSSTDYADSVKGRFTISRDNAKNTVYLQMNSLKPEDTAVYYCNRRGYRTSTTYRRYNYWGQGTQVTVSS”: the “polyreactivity (PSR sort gate)” value is listed as “high polyreactivity”.

Consider “QVQLVESGGGLVQAGGSLRLSCAASGSTFSTYTMGWYRQAPGKERELVASISGRGGRTYYADSVKGRFTISRDNAKNTVYLQMNSMKPEDTAVYYCAARYWTLPWYQRGDYWGQGTQVTVSS”, for which the “polyreactivity (PSR sort gate)” value was “high polyreactivity”.

Take “QVQLVESGGGLVQAGGSLRLSCAASGSTFSVNAMGWYRQAPGKEREFVAAITYSGGSTYYADSVKGRFTISRDNAKNTVYLQMNSLKPEDTAVYYCNRDTRYYWKRYGYWGQGTQVTVSS”: the “polyreactivity (PSR sort gate)” value is reported as “high polyreactivity”.

Regarding “QVQLVESGGGLVQAGGSLRLSCAASGSTFSVYGMGWYRQAPGKERELVAINIIGGSTYYADSVKGRFTISRDNAKNTVYLQMNSLKPEDTAVYYCAADSFPSEFDYWGQGTQVTVSS”, the “polyreactivity (PSR sort gate)” value is “low polyreactivity”.

For the sequence “QVQLVESGGGLVQAGGSLRLSCAASGSTFSVYTMGWYRQAPGKERELVAAITRNGGSTSYADSVKGRFTISRDNAKNTVYLQMNSLKPEDTAVYYCAASYSYRGYLYGYWGQGTQVTVSS”, the “polyreactivity (PSR sort gate)” value is “high polyreactivity”.

In the case of “QVQLVESGGGLVQAGGSLRLSCAASGSTFSWYAMGWYRQAPGKERELVASISFSGGDTSYADSVKGRFTISRDNAKNTVYLQMHSLKPEDSAVYYCGKEYKYETDTKFDYWGQGTQVTVSS”, the “polyreactivity (PSR sort gate)” value is “low polyreactivity”.

In the case of “QVQLVESGGGLVQAGGSLRLSCAASGSTFSWYTMGWYRQAPGKERELVAAISWSGGRTYYADSVKGRFTISRDNAKNTVYLQMNSLKPEDTAVYYCAAYDYWYSLGVYQFYYWGQGTQVTVSS”, the “polyreactivity (PSR sort gate)” value is recorded as “low polyreactivity”.

As to “QVQLVESGGGLVQAGGSLRLSCAASGSTFSWYTMGWYRQAPGKERELVAAITRDGSTYYADSVKGRFTISRDNAKNTVYLHMNSLKPEDTAVYYCAADLSYWRGGHSRNYWGQGTQVTVSS”, the “polyreactivity (PSR sort gate)” value is “low polyreactivity”.

Turning to “QVQLVESGGGLVQAGGSLRLSCAASGSTFSWYVMGWYRQAPGKERELVAAISYRGGRTYYADSVKGRFTISRDNAKNTVYLQMNSLKPEDTAVYYCAARGVVDAGRTNRPYDYWGQGTQVTVSS”, the “polyreactivity (PSR sort gate)” value is “low polyreactivity”.

Turning to “QVQLVESGGGLVQAGGSLRLSCAASGSTFSYNAMGWYRQAPGKERELVAAISWRGGRTYYADSVKGRFTISRDNAKNTVYLQMYSLKPEDTAVYYCAAAYAAYSRYRYDYWGQGTQVTVSS”, the “polyreactivity (PSR sort gate)” value is reported as “high polyreactivity”.

Regarding “QVQLVESGGGLVQAGGSLRLSCAASGSTFSYNAMGWYRQAPGKERELVAAITSSGSSTYYADSVKGRFTISRYNAKNTVYLQMNSLKPEDTAVYYCAATLYNTEDDYWGQGTQVTVSS”, the “polyreactivity (PSR sort gate)” value was “low polyreactivity”.

Consider “QVQLVESGGGLVQAGGSLRLSCAASGSTFSYNAMGWYRQAPGKERELVATITYSGGTTYYADSVKGRFTISRDNAKNTVYLQMNSLKPEDTAVYYCAALYSFSYLSTSFVVEDWYYYWGQGTQVTVSS”, for which the “polyreactivity (PSR sort gate)” value is recorded as “high polyreactivity”.

Regarding “QVQLVESGGGLVQAGGSLRLSCAASGSTFSYNAMGWYRQAPGKVRELVASINSRGGTTYYADSVKGRFTISRDNAKNTVYLQMNSRKPEDTAVYYCATDVYRLGEYDYWGQGTQVTVSS”, the “polyreactivity (PSR sort gate)” value is listed as “low polyreactivity”.

Regarding “QVQLVESGGGLVQAGGSLRLSCAASGSTFSYNDMGWYRQAPGKERELVAAITDSDGNTDYADSVKGRFTISRDKAKNTVYLQMNSLKPEDTAVYYCAAYYYGSVAQDREYWGQGTQVTVSS”, the “polyreactivity (PSR sort gate)” value was “high polyreactivity”.

As for “QVQLVESGGGLVQAGGSLRLSCAASGSTFSYYAMGWYRQAPGKEMELVAAIRSGGSTYYADSVKGRFTISRDNAKNTVYLQMNSLKPEDTAVYYCNADYIRASTLKYGTIYYWHYDYWGQGTQVTVSS”, the “polyreactivity (PSR sort gate)” value is “high polyreactivity”.

“QVQLVESGGGLVQAGGSLRLSCAASGSTFSYYAMGWYRQAPGKERDLVASIDGSTGSTYYADSVKGRFTISRDNAKTTVYLQMNILKPEDTAVYYFNAESLDYYDNAYEYWGQGTQVTVSS”: the “polyreactivity (PSR sort gate)” value is recorded as “low polyreactivity”.

In the case of “QVQLVESGGGLVQAGGSLRLSCAASGSTFSYYAMGWYRQAPGKERELVAAITKRGGSTYYADSVKGRFTISRDNAKNTVYLQMNSLKPEVTAVYYCAAKRKSYYSYNFDYWGQGTQVTVSS”, the “polyreactivity (PSR sort gate)” value was “high polyreactivity”.

As to “QVQLVESGGGLVQAGGSLRLSCAASGSTFSYYAMGWYRQAPGKERELVARISWRGGSTYYADSVKGRFTISRDNAKNTVYLQMNSLKPEDTAVYYCAARRSGTYYGTYKSNGRNYWGQGTQVTVSS”, the “polyreactivity (PSR sort gate)” value is “high polyreactivity”.

On to “QVQLVESGGGLVQAGGSLRLSCAASGSTFSYYAMGWYRQAPGKEWELVAAIRSGGSTYYADSVKGRFTISRDNAKNTVYLQMNSLKPEDTAVYYCNADYIRASTLNYGTIYYWHYDYWGQGTQVTVSS”, for which the “polyreactivity (PSR sort gate)” value is listed as “high polyreactivity”.

In the case of “QVQLVESGGGLVQAGGSLRLSCAASGSTFSYYDMGWYRQAPGKERELVAAISWNGGTTYYADSVKGRFTISRDNAKNTVYLQMNSLKPEDTAVYYCAATWDFYWAPYDSWGQGTQVTVSS”, the “polyreactivity (PSR sort gate)” value is “low polyreactivity”.

“QVQLVESGGGLVQAGGSLRLSCAASGSTFSYYGMGWYRPAPGKERELVAAIDYSGDSTYYADSVKARFTISRDNAKNTVYLQMNSLKPEDTAVYYCAADDYPWNRYEYWGQGTQVTVSS”: the “polyreactivity (PSR sort gate)” value is reported as “low polyreactivity”.

On to “QVQLVESGGGLVQAGGSLRLSCAASGSTFSYYPMGWYRQAPGKERELVATISKRGGTTSYADSVKGRFTISRDNAKNTVYLQMISLKPEDTAVYYCAARYSKVHYAYDYWGQGTQVTVSS”, for which the “polyreactivity (PSR sort gate)” value is on record as “high polyreactivity”.

On to “QVQLVESGGGLVQAGGSLRLSCAASGSTFTANAMGWYRQAPGTERELVAAISRSGGSTYYADSVKGRFTISRDNAKYTVYLQLNSLKPEDTAVYYCAAECPLFSPPDGEDYWGQGTLVTVSS”, for which the “polyreactivity (PSR sort gate)” value is recorded as “low polyreactivity”.

Take “QVQLVESGGGLVQAGGSLRLSCAASGSTFTAYAMGWYRHAPGKERELVAGITGNGGSTRYADSVKGRFTISRDNAKNTVYVQMNSLKPEDTAFYYCAARWTRQRYRTSYYSWGQGTQVTVSS”: the “polyreactivity (PSR sort gate)” value was “high polyreactivity”.

With “QVQLVESGGGLVQAGGSLRLSCAASGSTFTAYVMGWYRQAPGKERELVAAISSSGGRTYYADSVKGRFTISRDNAKNTVYLQMNSLKPEDTAVYYCAARSGPLAYDYWGQGTQVTVSS”, the “polyreactivity (PSR sort gate)” value was “high polyreactivity”.

Take “QVQLVESGGGLVQAGGSLRLSCAASGSTFTDNAMGWYRQAPGKETELVAAINGSGDITYYADSVKGRFTISRDYAKNTVYLQMKSLKPEDTAVYYCATRTQYKTWYGAYYYWGQGTQVTVSS”: the “polyreactivity (PSR sort gate)” value is listed as “low polyreactivity”.

For the sequence “QVQLVESGGGLVQAGGSLRLSCAASGSTFTDYAMGWYRQAPGKERELVAAIRFSGGSTYYADSVKGRFTISRDNAKNTVYLQMNSLKPEDTAVYYCAAGGYPWLDSWGQGTQVTVSS”, the “polyreactivity (PSR sort gate)” value was “low polyreactivity”.

As for “QVQLVESGGGLVQAGGSLRLSCAASGSTFTDYDMGWYRPAPGKERELVAAISSGGSTYYADSVKGRFTISRDNAKNTVYLQMNSLKPEDTAVYYCAAVLGVWGGVGSEGDYWGQGTQVTVSS”, the “polyreactivity (PSR sort gate)” value is given as “low polyreactivity”.

In the case of “QVQLVESGGGLVQAGGSLRLSCAASGSTFTFNAMGWYRQAPGKERELVAAITTSAGSTYYADSVKGRFTISRDNAKNTVYLQMNSLKPEDTAVYYCAARYVPPWGRRYYYWGQGTQVTVSS”, the “polyreactivity (PSR sort gate)” value was “high polyreactivity”.

Turning to “QVQLVESGGGLVQAGGSLRLSCAASGSTFTFYFMGWYRQAPGKERELVAAITASGGSTYYADSVKGRFTISRDNAKNTVYLQMNSEKPEDTAVYYCAARPTYYYSRTYDYWGQGTQVTVSS”, the “polyreactivity (PSR sort gate)” value is on record as “low polyreactivity”.
